Reference: patent publication US6132729 (Board of Regents, The University of Texas System, dated 2000)
“And” between values parts separate entries of the source, which are not always exact repeats. Equal entries are not always repeated. Where two headings read alike, the source gives them in different places. One block for each molecule: values may come before it.

Columns and labels:
[1] = biological target: tTF219 (truncated Tissue Factor, extracellular domain of mature human Tissue Factor) (human)
[2] = biological target: tTF219 (truncated Tissue Factor, extracellular domain of mature human Tissue Factor) (human); remark: listed apart in the source
[3] = biological target: IgG-H6-N'-cys-tTF219 (human)
H6-N'-cys-tTF219 (human) [4] = biological target: H6-N'-cys-tTF219 (human)
[5] = biological target: tTF219 (truncated Tissue Factor, extracellular domain of mature human Tissue Factor) (human); remark: listed apart in the source
[6] = biological target: H6-N'-cys-tTF219 dimer (human)
[7] = biological target: H6-tTF221-cys-C' dimer (human)
[8] = biological target: tTF219 (truncated Tissue Factor, extracellular domain of mature human Tissue Factor) (human); remark: listed apart in the source
H6-N'-cys-tTF219 (human) [9] = biological target: H6-N'-cys-tTF219 (human); remark: listed apart in the source
[10] = biological target: tTF219 (truncated Tissue Factor, extracellular domain of mature human Tissue Factor) (human); remark: listed apart in the source
[11] = biological target: T1, Factor VIIa (recombinant human) (human); experiment: cell-based or functional assay
T1 chain 1: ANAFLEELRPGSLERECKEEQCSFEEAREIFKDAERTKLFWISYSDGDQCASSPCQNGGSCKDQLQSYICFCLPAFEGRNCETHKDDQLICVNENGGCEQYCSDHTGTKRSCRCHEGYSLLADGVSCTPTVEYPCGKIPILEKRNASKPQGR
T1 chain 2: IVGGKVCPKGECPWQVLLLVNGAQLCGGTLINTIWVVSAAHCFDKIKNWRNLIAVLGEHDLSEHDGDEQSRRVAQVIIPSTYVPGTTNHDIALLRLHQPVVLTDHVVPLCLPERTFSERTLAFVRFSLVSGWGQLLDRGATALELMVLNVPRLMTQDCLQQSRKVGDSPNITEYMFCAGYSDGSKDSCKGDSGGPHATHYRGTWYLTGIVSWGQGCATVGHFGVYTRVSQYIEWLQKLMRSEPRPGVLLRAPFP

tTF concentration at which plasma coagulated in 50 seconds [1]: 3 nM
clotting time of mouse plasma on A20 cells [2]: 36 s
coagulation inducing activity against the unconjugated form [3]: 5 fold reduced
tTF concentration at which plasma coagulated in 50 seconds [3]: 5 nM
tTF concentration at which plasma coagulated in 50 seconds (H6-N'-cys-tTF219 (human) [4]): 1 nM
tTF concentration at which plasma coagulated in 50 seconds [5]: 1 nM
tTF concentration at which plasma coagulated in 50 seconds [6]: 100 pM and 200 pM
tTF concentration at which plasma coagulated in 50 seconds [7]: 4 nM
tTF concentration at which plasma coagulated in 50 seconds [8]: 100 pM and 200 pM
tTF concentration at which plasma coagulated in 50 seconds (H6-N'-cys-tTF219 (human) [9]): 3 nM
tTF concentration at which plasma coagulated in 50 seconds (H6-tTF219-cys-C' (human)): 3 nM
tTF concentration at which plasma coagulated in 50 seconds (H6-tTF220-cys-C' (human)): 500 pM
tTF concentration at which plasma coagulated in 50 seconds (H6-tTF221-cys-C' (human)): 500 pM
tTF concentration at which plasma coagulated in 50 seconds (tTF221-cys-C' (human)): 500 pM
tTF concentration at which plasma coagulated in 50 seconds (tTF220-cys-C' (human)): 500 pM
tTF concentration at which plasma coagulated in 50 seconds [10]: 500 pM
Molecule: B21-2/10H10 bispecific antibody

conversion of Factor X to Xa (chromogenic substrate S-2765, OD 409 nm) (fold less active) (Factor VII in Proplex T): 2
Molecule: IgG-H6-N'-cys-tTF219

coagulation-inducing potency of cell-associated tTF219 with added Factor VIIa [11]: ~100 fold
B1: tTF219 (truncated Tissue Factor, extracellular domain of mature human Tissue Factor) (receptor)
chain: GSGTTNTVAAYNLTWKSTNFKTILEWEPKPVNQVYTVQISTKSGDWKSKCFYTTDTECDLTDEIVKDVKQTYLARVFSYPAGNVESTGSAGEPLYENSPEFTPYLETNLGQPTIQSFEQVGTKVNVTVEDERTLVRRNNTFLSLRDVFGKDLIYTLYYWKSSSSGKKTAKTNTNEFLIDVDKGENYCFSVQAVIPSRTVNRKSTDSPVECMGQEKGEFRE
